Measured values reported in US20140357577A1, “HIV Membrane Fusion Inhibitors” (priority 2011, published 2014).
Starred links: 1 amine or outer side, 2 acyl side, 3 side chain; linkers in the order of their positions; H or OH if unused. Positions of bridges follow the written chain, without caps; N, C: chain ends. Non-standard residues stand in square brackets, D forms with d. *: point of attachment. pXylylene = c1cc(C[*:2])ccc1C[*:1]; Palmitoyl = CCCCCCCCCCCCCCCC(=O)*; tBuAla = CC(C)(C)C[C@H](N)C(=O)O; Cha = N[C@@H](CC1CCCCC1)C(=O)O; Suc = O=C(CCC(=O)[*:2])[*:1]; Abu = CC[C@H](N)C(=O)O; Pentanoyl = CCCCC(=O)*; B1 = not defined here

The binders below were run against gp41 of HIV-1 strain HXB2D with mutation V38A (HIV-1 strain HXB2D, UniProt P04578) (assay: cell-based or functional assay).

Binder | fold change in EC50, HIV-HXB2D V38A mutant
Ac-ACYLACIEALIRAAQEQQEKNEAALL-NH2 (linker 2-6 via pXylylene; SMILES CC[C@H](C)[C@H](NC(=O)[C@H](CC(C)C)NC(=O)[C@H](C)NC(=O)[C@H](CCC(=O)O)NC(=O)[C@@H](NC(=O)[C@@H]1CSCc2ccc(cc2)CSC[C@H](NC(=O)[C@H](C)NC(C)=O)C(=O)N[C@@H](Cc2ccc(O)cc2)C(=O)N[C@@H](CC(C)C)C(=O)N[C@@H](C)C(=O)N1)[C@@H](C)CC)C(=O)N[C@@H](CCCNC(=N)N)C(=O)N[C@@H](C)C(=O)N[C@@H](C)C(=O)N[C@@H](CCC(N)=O)C(=O)N[C@@H](CCC(=O)O)C(=O)N[C@@H](CCC(N)=O)C(=O)N[C@@H](CCC(N)=O)C(=O)N[C@@H](CCC(=O)O)C(=O)N[C@@H](CCCCN)C(=O)N[C@@H](CC(N)=O)C(=O)N[C@@H](CCC(=O)O)C(=O)N[C@@H](C)C(=O)N[C@@H](C)C(=O)N[C@@H](CC(C)C)C(=O)N[C@@H](CC(C)C)C(N)=O) [peptide 54] | 31 fold
Pentanoyl-ENYLALIEELIRKAQEQQEKNEAALR-NH2 (SMILES CCCCC(=O)N[C@@H](CCC(=O)O)C(=O)N[C@@H](CC(N)=O)C(=O)N[C@@H](Cc1ccc(O)cc1)C(=O)N[C@@H](CC(C)C)C(=O)N[C@@H](C)C(=O)N[C@@H](CC(C)C)C(=O)N[C@H](C(=O)N[C@@H](CCC(=O)O)C(=O)N[C@@H](CCC(=O)O)C(=O)N[C@@H](CC(C)C)C(=O)N[C@H](C(=O)N[C@@H](CCCNC(=N)N)C(=O)N[C@@H](CCCCN)C(=O)N[C@@H](C)C(=O)N[C@@H](CCC(N)=O)C(=O)N[C@@H](CCC(=O)O)C(=O)N[C@@H](CCC(N)=O)C(=O)N[C@@H](CCC(N)=O)C(=O)N[C@@H](CCC(=O)O)C(=O)N[C@@H](CCCCN)C(=O)N[C@@H](CC(N)=O)C(=O)N[C@@H](CCC(=O)O)C(=O)N[C@@H](C)C(=O)N[C@@H](C)C(=O)N[C@@H](CC(C)C)C(=O)N[C@@H](CCCNC(=N)N)C(N)=O)[C@@H](C)CC)[C@@H](C)CC) [peptide 52] | 5 fold
Suc-ACY[Abu]ACIEALIRAAQEQQEKNEAALR-NH2 (linker 2-6 via B1; reading uncertain) [peptide 49] | 33 fold
Suc-ANYLALIEALIRAAQEQQEKNEAAL-NH2 (SMILES CC[C@H](C)[C@H](NC(=O)[C@H](CC(C)C)NC(=O)[C@H](C)NC(=O)[C@H](CCC(=O)O)NC(=O)[C@@H](NC(=O)[C@H](CC(C)C)NC(=O)[C@H](C)NC(=O)[C@H](CC(C)C)NC(=O)[C@H](Cc1ccc(O)cc1)NC(=O)[C@H](CC(N)=O)NC(=O)[C@H](C)NC(=O)CCC(=O)O)[C@@H](C)CC)C(=O)N[C@@H](CCCNC(=N)N)C(=O)N[C@@H](C)C(=O)N[C@@H](C)C(=O)N[C@@H](CCC(N)=O)C(=O)N[C@@H](CCC(=O)O)C(=O)N[C@@H](CCC(N)=O)C(=O)N[C@@H](CCC(N)=O)C(=O)N[C@@H](CCC(=O)O)C(=O)N[C@@H](CCCCN)C(=O)N[C@@H](CC(N)=O)C(=O)N[C@@H](CCC(=O)O)C(=O)N[C@@H](C)C(=O)N[C@@H](C)C(=O)N[C@@H](CC(C)C)C(N)=O) [peptide 1] | 57 fold
Ac-ACYLACIEALIRAAQEQQEKNEAALR-NH2 (linker 2-6 via pXylylene; SMILES CC[C@H](C)[C@H](NC(=O)[C@H](CC(C)C)NC(=O)[C@H](C)NC(=O)[C@H](CCC(=O)O)NC(=O)[C@@H](NC(=O)[C@@H]1CSCc2ccc(cc2)CSC[C@H](NC(=O)[C@H](C)NC(C)=O)C(=O)N[C@@H](Cc2ccc(O)cc2)C(=O)N[C@@H](CC(C)C)C(=O)N[C@@H](C)C(=O)N1)[C@@H](C)CC)C(=O)N[C@@H](CCCNC(=N)N)C(=O)N[C@@H](C)C(=O)N[C@@H](C)C(=O)N[C@@H](CCC(N)=O)C(=O)N[C@@H](CCC(=O)O)C(=O)N[C@@H](CCC(N)=O)C(=O)N[C@@H](CCC(N)=O)C(=O)N[C@@H](CCC(=O)O)C(=O)N[C@@H](CCCCN)C(=O)N[C@@H](CC(N)=O)C(=O)N[C@@H](CCC(=O)O)C(=O)N[C@@H](C)C(=O)N[C@@H](C)C(=O)N[C@@H](CC(C)C)C(=O)N[C@@H](CCCNC(=N)N)C(N)=O) [peptide 56] | 61 fold
Ac-ECYLRCIEALIRAAQEQQEKNEAALR-NH2 (linker 2-6 via pXylylene; SMILES CC[C@H](C)[C@H](NC(=O)[C@H](CC(C)C)NC(=O)[C@H](C)NC(=O)[C@H](CCC(=O)O)NC(=O)[C@@H](NC(=O)[C@@H]1CSCc2ccc(cc2)CSC[C@H](NC(=O)[C@H](CCC(=O)O)NC(C)=O)C(=O)N[C@@H](Cc2ccc(O)cc2)C(=O)N[C@@H](CC(C)C)C(=O)N[C@@H](CCCNC(=N)N)C(=O)N1)[C@@H](C)CC)C(=O)N[C@@H](CCCNC(=N)N)C(=O)N[C@@H](C)C(=O)N[C@@H](C)C(=O)N[C@@H](CCC(N)=O)C(=O)N[C@@H](CCC(=O)O)C(=O)N[C@@H](CCC(N)=O)C(=O)N[C@@H](CCC(N)=O)C(=O)N[C@@H](CCC(=O)O)C(=O)N[C@@H](CCCCN)C(=O)N[C@@H](CC(N)=O)C(=O)N[C@@H](CCC(=O)O)C(=O)N[C@@H](C)C(=O)N[C@@H](C)C(=O)N[C@@H](CC(C)C)C(=O)N[C@@H](CCCNC(=N)N)C(N)=O) [peptide 50] | 12 fold
Ac-ANYAALIEALIRAAQEQQEKNEAALR-NH2 [peptide 2] | 61 fold
Ac-ACY[Cha]ACIEALIRAAQEQQEKNEAALR-NH2 (linker 2-6 via B1; reading uncertain) [peptide 59] | 18 fold
Ac-ACYLACIEALIRRAQEQQEKNEAALR-NH2 (linker 2-6 via pXylylene; SMILES CC[C@H](C)[C@H](NC(=O)[C@@H]1CSCc2ccc(cc2)CSC[C@H](NC(=O)[C@H](C)NC(C)=O)C(=O)N[C@@H](Cc2ccc(O)cc2)C(=O)N[C@@H](CC(C)C)C(=O)N[C@@H](C)C(=O)N1)C(=O)N[C@@H](CCC(=O)O)C(=O)N[C@@H](C)C(=O)N[C@@H](CC(C)C)C(=O)N[C@H](C(=O)N[C@@H](CCCNC(=N)N)C(=O)N[C@@H](CCCNC(=N)N)C(=O)N[C@@H](C)C(=O)N[C@@H](CCC(N)=O)C(=O)N[C@@H](CCC(=O)O)C(=O)N[C@@H](CCC(N)=O)C(=O)N[C@@H](CCC(N)=O)C(=O)N[C@@H](CCC(=O)O)C(=O)N[C@@H](CCCCN)C(=O)N[C@@H](CC(N)=O)C(=O)N[C@@H](CCC(=O)O)C(=O)N[C@@H](C)C(=O)N[C@@H](C)C(=O)N[C@@H](CC(C)C)C(=O)N[C@@H](CCCNC(=N)N)C(N)=O)[C@@H](C)CC) [peptide 51] | 10 fold
Ac-ACY[tBuAla]ACIEALIRAAQEQQEKNEAALR-NH2 (linker 2-6 via B1; reading uncertain) [peptide 60] | 18 fold
Ac-ECYAACIEELIRKAQEQQEKNEAALR-NH2 (linker 2-6 via pXylylene; SMILES CC[C@H](C)[C@H](NC(=O)[C@@H]1CSCc2ccc(cc2)CSC[C@H](NC(=O)[C@H](CCC(=O)O)NC(C)=O)C(=O)N[C@@H](Cc2ccc(O)cc2)C(=O)N[C@@H](C)C(=O)N[C@@H](C)C(=O)N1)C(=O)N[C@@H](CCC(=O)O)C(=O)N[C@@H](CCC(=O)O)C(=O)N[C@@H](CC(C)C)C(=O)N[C@H](C(=O)N[C@@H](CCCNC(=N)N)C(=O)N[C@@H](CCCCN)C(=O)N[C@@H](C)C(=O)N[C@@H](CCC(N)=O)C(=O)N[C@@H](CCC(=O)O)C(=O)N[C@@H](CCC(N)=O)C(=O)N[C@@H](CCC(N)=O)C(=O)N[C@@H](CCC(=O)O)C(=O)N[C@@H](CCCCN)C(=O)N[C@@H](CC(N)=O)C(=O)N[C@@H](CCC(=O)O)C(=O)N[C@@H](C)C(=O)N[C@@H](C)C(=O)N[C@@H](CC(C)C)C(=O)N[C@@H](CCCNC(=N)N)C(N)=O)[C@@H](C)CC) [peptide 53] | 34 fold
Ac-ACYIACIEALIRAAQEQQEKNEAALR-NH2 (linker 2-6 via pXylylene; SMILES CC[C@H](C)[C@@H]1NC(=O)[C@H](Cc2ccc(O)cc2)NC(=O)[C@@H](NC(=O)[C@H](C)NC(C)=O)CSCc2ccc(cc2)CSC[C@@H](C(=O)N[C@H](C(=O)N[C@@H](CCC(=O)O)C(=O)N[C@@H](C)C(=O)N[C@@H](CC(C)C)C(=O)N[C@H](C(=O)N[C@@H](CCCNC(=N)N)C(=O)N[C@@H](C)C(=O)N[C@@H](C)C(=O)N[C@@H](CCC(N)=O)C(=O)N[C@@H](CCC(=O)O)C(=O)N[C@@H](CCC(N)=O)C(=O)N[C@@H](CCC(N)=O)C(=O)N[C@@H](CCC(=O)O)C(=O)N[C@@H](CCCCN)C(=O)N[C@@H](CC(N)=O)C(=O)N[C@@H](CCC(=O)O)C(=O)N[C@@H](C)C(=O)N[C@@H](C)C(=O)N[C@@H](CC(C)C)C(=O)N[C@@H](CCCNC(=N)N)C(N)=O)[C@@H](C)CC)[C@@H](C)CC)NC(=O)[C@H](C)NC1=O) [peptide 57] | 23 fold
Suc-ENYLRLIEELIRKAQEQQEKNEAALRGSGK(Palmitoyl)-NH2 (SMILES CCCCCCCCCCCCCCCC(=O)NCCCC[C@H](NC(=O)CNC(=O)[C@H](CO)NC(=O)CNC(=O)[C@H](CCCNC(=N)N)NC(=O)[C@H](CC(C)C)NC(=O)[C@H](C)NC(=O)[C@H](C)NC(=O)[C@H](CCC(=O)O)NC(=O)[C@H](CC(N)=O)NC(=O)[C@H](CCCCN)NC(=O)[C@H](CCC(=O)O)NC(=O)[C@H](CCC(N)=O)NC(=O)[C@H](CCC(N)=O)NC(=O)[C@H](CCC(=O)O)NC(=O)[C@H](CCC(N)=O)NC(=O)[C@H](C)NC(=O)[C@H](CCCCN)NC(=O)[C@H](CCCNC(=N)N)NC(=O)[C@@H](NC(=O)[C@H](CC(C)C)NC(=O)[C@H](CCC(=O)O)NC(=O)[C@H](CCC(=O)O)NC(=O)[C@@H](NC(=O)[C@H](CC(C)C)NC(=O)[C@H](CCCNC(=N)N)NC(=O)[C@H](CC(C)C)NC(=O)[C@H](Cc1ccc(O)cc1)NC(=O)[C@H](CC(N)=O)NC(=O)[C@H](CCC(=O)O)NC(=O)CCC(=O)O)[C@@H](C)CC)[C@@H](C)CC)C(N)=O) [peptide 55] | 1 fold
